Assay [1] has as its system yeast-induced fever model in SD rats. The experiment in a line: Yeast-induced fever model in SD rats. The assay is classed as in vivo, rat. The following applies: for Body temperature 2 hours after modeling: 2 h after 20% yeast s.c.; for Body temperature 2 hours after modeling / Body temperature 4 hours after modeling / Body temperature 6 hours after modeling / Body temperature 8 hours after modeling: n=8; for Body temperature 4 hours after modeling: 4 h after 20% yeast s.c.; for Body temperature 6 hours after modeling: 6 h after 20% yeast s.c.; for Body temperature 8 hours after modeling: 8 h after 20% yeast s.c. As to the method: • Animals: 230-260 grams of male SD rats;; • Drugs: yeast (OXOID LP0021), aspirin (SIGMA A2093), protein BD-11; • Instruments: electronic balance (SARTORIUS BP121S type), electronic clinical thermometer (CITIZEN CT-513W type).
Experiment grouping: • Normal control group; • Model group: yeast fever model; • Positive control group: Aspirin 300 mg/kg group; • Protein BD-11, 10 mg/kg group, 50 mg/kg group.
Preparation of experimental animals: After the experimental animals adapt to the experimental environment (temperature 22° C.±2° C., relative humidity 50%±2%) for 1 day. Pre-adaptation to measure rectal temperature at 8:00 and 15:00, rats were fasted and water was taken freely 12 h before experiment, and let the animal to empty its feces before measuring the rectal temperature. Apply petroleum jelly to the electronic thermometer probe before each temperature measurement. Insert the rat rectum 2 cm (can be marked at 2 cm to ensure that the depth of each insertion is consistent), and record the body temperature after the reading is stable.
Subcutaneous injection of dry yeast to replicate rat fever model: The body temperature of the rats was measured before modeling. Qualified rats with a body temperature of 36.2-37.3° C. were selected and randomly divided into groups with 8 rats in each group. After oral administration of aspirin and different doses of protein BD-11, 20% yeast suspension (10 ml/kg) was injected subcutaneously immediately, and the normal control group was injected intraperitoneally with an equal volume of normal saline. The body temperatures of the rats were monitored after 2 hours for a total of 8 hours.
According to the body temperature measured at each time point on the day of the experiment, calculate the mean, standard deviation and standard error of the body temperature of each group of rats. The data of each group was compared with TTEST, and P<0.05 was considered as a significant difference.
Immediately after oral administration of aspirin (300 mg/kg), protein BD-11 (10 mg/kg, 50 mg/kg), subcutaneous injection of 20% yeast was performed to establish a model. The animal body temperature was monitored at 2 hours, 4 hours, 6 hours, and 8 hours after modeling.

The test system of assay [2] is tracheal phenol red excretion in ICR mice. The experiment in a line: Expectorant test, phenol red excretion method in mice. The assay is classed as in vivo, mouse. To be noted: for Phenol red excretion: X±SEM, n=10. As to the method:
• Animals: male ICR mice; • Drugs and reagents: Mucosolvan (ambroxol hydrochloride tablets), phenol red, sodium bicarbonate, protein BD-11; • Instruments: centrifuge (Sigma-3K15 type), balance (XS105DU type), Microplate tester (BIO-TEK type).
Experiment grouping: • Solvent control group; • Mucosolvan 30 mg/kg group; • Protein BD-11, 20 mg/kg group, 50 mg/kg group.
The animals were fasted and water was taken freely 16 hours before the experiment. Orally administered Mucosolvan and different doses of protein BD-11 (administration volume 10 ml/kg) in groups, and the solvent control group was given the same volume of distilled water. One hour later, 2.5% phenol red solution was injected intraperitoneally. Mice were sacrificed by neck dislocation after 30 minutes. Take a trachea from below the thyroid cartilage to the branch of the trachea, and put the trachea into 3 ml 5% NaHCO3 solution and let it stand for 3 hours. Take 1 ml of the supernatant and centrifuge at 3000 rpm for 5 minutes. Measure and record the absorbance at 546 nm. According to the standard curve of phenol red, the excretion of phenol red was calculated.
Record the time point of oral administration, the time point of intraperitoneal injection of 2.5% phenol red solution, and the time point of taking the trachea respectively; The absorbance of each group of samples was measured by the microplate reader at 546 nm, Calculate the excretion of phenol red according to the standard curve of phenol red. Calculate the mean and standard error of the data in each group, and use TTEST to compare the solvent control group with other groups, and P<0.05 is considered as a significant difference.
Give Mucosolvan (30 mg/kg) and different doses of protein BD-11 (20 mg/kg, 50 mg/kg). One hour later, 2.5% phenol red solution was intraperitoneally injected, and 30 minutes later, the mice were sacrificed by neck dislocation. Take the trachea from below the thyroid cartilage to the branch of the trachea, put the trachea into 3 ml of 5% NaHCO3 solution and let it stand for 3 hours, take 1 ml of supernatant, centrifuge at 3000 rpm for 5 minutes, measure and record the absorbance at 546 nm. According to the standard curve of phenol red, the excretion of phenol red was calculated.

Assay [3] relates to acetic acid writhing in ICR mice. The experiment in a line: Acetic acid writhing test in ICR mice. In kind it is in vivo, mouse. To be noted: for Writhing incubation period: 0.6% acetic acid i.p.; for Writhing incubation period / Frequency of writhing: n=13; for Frequency of writhing: within 15 minutes. As to the method:
• Animals: male ICR mice; • Drugs and reagents: aspirin, physiological saline, glacial acetic acid, protein BD-11.
Experiment grouping: • Model group; • Aspirin 300 mg/kg group; • Protein BD-11, 50 mg/kg group, 200 mg/kg group.
One day after the experimental animals adapt to the environment, Aspirin 300 mg/kg, protein BD-11 50 mg/kg, 200 mg/kg were given orally one hour in advance, and the administration volume was 10 ml/kg; Then, 0.6% acetic acid solution was injected intraperitoneally, and the incubation period (seconds) and frequency of writhing in the animal was observed within 15 minutes.
Calculate the mean and standard error of the data in each group. Compared with the model group by TTEST, P<0.05 was considered as statistically different.
One hour after oral administration of aspirin 300 mg/kg and different doses of protein BD-11 (50 mg/kg, 200 mg/kg), 0.6% acetic acid solution was intraperitoneally injected to observe the writhing incubation period and frequency of ICR mice.
0.6% acetic acid solution was injected into the abdominal cavity of mice, which caused deep and large area and long-term painful stimulation, causing the mice to writhe (the abdomen was contracted into an “S” shape, the trunk and hind legs were stretched, the buttocks were raised and creeping). The incubation time to start writhing and times of writhing in mice were used as the pain response indexs to determine whether the test sample had analgesic effect. […] Compared with the model group, P<0.05, which is statistically significant.

Consider 1 molecule from patent US20230183305A1, “KERATIN BD-11, PREPARATION METHOD THEREFOR AND PHARMACEUTICAL COMPOSITION AND USE THEREOF” (INSTITUTE OF MATERIA MEDICA, CHINESE ACADEMY OF MEDICAL …, priority 2019, published 2023).

B1: BD-11: recombinant keratin, amino acid sequence SEQ ID NO:1, expressed in E. coli, band around 59 kD; Example 4 batch tested (protein, listed as Bos taurus)
chain: MSRQSTITFQTSSRRGFSTASATTPATSRSRFSSASVTHSPAGSGGLGRISGFGSRSLYNLGGTKRVSISGCGSNFRSGFGGRASSGFGVSGGFGYGGGIGGGHGGCGFSVCPPGGIQEVTVNQSLLTPLNLQIDPNIQRVRKEEREQIKTLNNKFASFIDKVRFLEQQNKVLETKWSLLQEQGTRTVRQSLEPFFEAYITDLRRQLDSITTERGRLDAELRTMQDVVEDFKVRYEDEINKRTAAENEFVALKKDVDAAYLNKVDLEAKANSLTDEINFLQMLFEAELCQMQTRVSDTSVVLSMDNNRSLDLDSIIAEVKAQYEEIANRSRAEAESWYQTKYEELQVTAGQHGDDLRNTKQEISETNRMIQRLRAEIDNVKKQCASLQTAIADAEQRGELALKDARAKLVDLEEALQKSKQDMARLLREYQELMNIKLALDVEIATYRKLLEGEECRLSGEGVSPVNISVVTSTVSSGYGGGSSIGSGSLGLSGGSGCSFMTSGGHSLGGSSFSNSSSRGLGGSGSSFKFVSTTSSSRKSYKH
On to B1, for which the “Effect on increase in body temperature (summary)” value in assay [1] (2, 4, 6 and 8 hours after modeling, dose not given) is recorded as “significantly inhibit the increase in body temperature”. Further, the “Effect on the increase in body temperature of model rats” value in assay [1] (BD-11 10 mg/kg dose group, most time points P<0.05 vs model group) is listed as “strong effect”. In assay [1] (BD-11 10 mg/kg oral), the “Body temperature 2 hours after modeling” value amounted to 36.7±0.1 °C, the “Body temperature 4 hours after modeling” value amounted to 37.0±0.1 °C, the “Body temperature 6 hours after modeling” value was 37.4±0.1 °C and the “Body temperature 8 hours after modeling” value came to 37.3 ±0.1 °C. In addition, in assay [1] (BD-11 50 mg/kg oral), the “Body temperature 2 hours after modeling” value is 36.9 ± 0.2 °C, the “Body temperature 4 hours after modeling” value was determined as 37.4 ± 0.1 °C, the “Body temperature 6 hours after modeling” value is 37.5 ± 0.1 °C and the “Body temperature 8 hours after modeling” value was 37.4 ±0.1 °C. Also, in assay [1] (different doses of BD-11 (10, 50 mg/kg oral), after modeling), the “Effect on the increase in body temperature of model rats” value was “can inhibit the increase in body temperature of model rats to varying degrees”. In addition, the Phenol red excretion in assay [2] (BD-11 20 mg/kg oral) is 0.670 ± 0.082 µg/mL. Moreover, the “Excretion of phenol red vs solvent control group” value in assay [2] (BD-11 50 mg/kg dose group, P<0.05) is on record as “significantly increased the excretion of phenol red”. For the same molecule, the Phenol red excretion in assay [2] (BD-11 50 mg/kg oral) came out at 0.781 ± 0.043 µg/mL. Further, in assay [2] (dose not given), the “Expectorant effect (summary)” value is reported as “obvious expectorant effect”. In assay [3] (BD-11 50 mg/kg oral), this molecule displayed a Writhing incubation period of 163.8 ± 8.2 s and a Frequency of writhing of 35.0 ± 2.5 times. The “Effect on number of writhing in mice” value in assay [3] (BD-11 200 mg/kg dose group, P<0.05 vs model group) is given as “significantly reduce the number of writhing”. Further, in assay [3] (BD-11 200 mg/kg oral), the Writhing incubation period was 299.9 ± 65.2 s and the Frequency of writhing stood at 23.3 ± 3.1 times. Moreover, the “Effect on number of writhing times in mice (summary)” value in assay [3] (dose not given) is given as “significantly reduce the number of writhing times”.
